# From the supplement of paper PMC10567573
# B1: PRIM1 (parent)
# chain: CCSSADICPKCWTLMTMAIRIIDR
# Variants of: B1
# Assay: protein stability index of a GFP-peptide fusion (GPS, HEK-293T) (PSI 1-6); higher = more stable
# Conditions: c terminus: a fixed tail appended
# 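Note: lentivirally expressed fusions sorted by FACS into six bins by GFP to DsRed ratio, PSI derived from sequencing read proportions per bin multiplied by bin number.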
row,Variant,protein stability index
1,CCSSADICPKCWTLMTMEIRIIDR [A18E],1.45
2,CCSSADICPKCWTLMTMFIRIIDR [A18F],1.64
3,CCSSADICPKCWTLMTMGIRIIDR [A18G],2.06
4,CCSSADICPKCWTLMTMHIRIIDR [A18H],2.1
5,CCSSADICPKCWTLMTMIIRIIDR [A18I],1.79
6,CCSSADICPKCWTLMTMKIRIIDR [A18K],2.17
7,CCSSADICPKCWTLMTMLIRIIDR [A18L],2.3
8,CCSSADICPKCWTLMTMMIRIIDR [A18M],1.24
9,CCSSADICPKCWTLMTMPIRIIDR [A18P],2.1
10,CCSSADICPKCWTLMTMQIRIIDR [A18Q],2.71
11,CCSSADICPKCWTLMTMRIRIIDR [A18R],1.94
12,CCSSADICPKCWTLMTMTIRIIDR [A18T],1.56
13,CCSSADICPKCWTLMTMVIRIIDR [A18V],2.18
14,CCSSADICPKCWTLMTMWIRIIDR [A18W],2.92
15,CCSSADICPKCWTLMTMYIRIIDR [A18Y],1.34
16,CCSSADICPKCWTLMTMAARIIDR [I19A],1.93
17,CCSSADICPKCWTLMTMADRIIDR [I19D],2.92
18,CCSSADICPKCWTLMTMAERIIDR [I19E],2.48
19,CCSSADICPKCWTLMTMAFRIIDR [I19F],1.57
20,CCSSADICPKCWTLMTMAGRIIDR [I19G],2.21
21,CCSSADICPKCWTLMTMAHRIIDR [I19H],2.8
22,CCSSADICPKCWTLMTMAKRIIDR [I19K],2.77
23,CCSSADICPKCWTLMTMALRIIDR [I19L],2.12
24,CCSSADICPKCWTLMTMAMRIIDR [I19M],2.33

row,Variant,protein stability index
1,CCSSADICPKCWTLMTMANRIIDR [I19N],2.89
2,CCSSADICPKCWTLMTMAPRIIDR [I19P],2.8
3,CCSSADICPKCWTLMTMAQRIIDR [I19Q],1.81
4,CCSSADICPKCWTLMTMASRIIDR [I19S],2.6
5,CCSSADICPKCWTLMTMATRIIDR [I19T],2.98
6,CCSSADICPKCWTLMTMAVRIIDR [I19V],2.58
7,CCSSADICPKCWTLMTMAWRIIDR [I19W],1.83
8,CCSSADICPKCWTLMTMAYRIIDR [I19Y],2.05
9,CCSSADICPKCWTLMTMAIAIIDR [R20A],1.93
10,CCSSADICPKCWTLMTMAICIIDR [R20C],1.96
11,CCSSADICPKCWTLMTMAIDIIDR [R20D],1.5
12,CCSSADICPKCWTLMTMAIEIIDR [R20E],1.83
13,CCSSADICPKCWTLMTMAIFIIDR [R20F],1.46
14,CCSSADICPKCWTLMTMAIGIIDR [R20G],2.23
15,CCSSADICPKCWTLMTMAIHIIDR [R20H],2.05
16,CCSSADICPKCWTLMTMAIIIIDR [R20I],1.33
17,CCSSADICPKCWTLMTMAIKIIDR [R20K],1.19
18,CCSSADICPKCWTLMTMAILIIDR [R20L],1.77
19,CCSSADICPKCWTLMTMAINIIDR [R20N],2.18
20,CCSSADICPKCWTLMTMAIPIIDR [R20P],2.25
21,CCSSADICPKCWTLMTMAIQIIDR [R20Q],3.56
22,CCSSADICPKCWTLMTMAISIIDR [R20S],2.01
23,CCSSADICPKCWTLMTMAITIIDR [R20T],1.67
24,CCSSADICPKCWTLMTMAIVIIDR [R20V],1.96

row,Variant,protein stability index
1,CCSSADICPKCWTLMTMAIWIIDR [R20W],1.65
2,CCSSADICPKCWTLMTMAIYIIDR [R20Y],1.91
3,CCSSADICPKCWTLMTMAIRAIDR [I21A],2.2
4,CCSSADICPKCWTLMTMAIRCIDR [I21C],1.94
5,CCSSADICPKCWTLMTMAIRDIDR [I21D],2.68
6,CCSSADICPKCWTLMTMAIREIDR [I21E],1.58
7,CCSSADICPKCWTLMTMAIRFIDR [I21F],1.39
8,CCSSADICPKCWTLMTMAIRGIDR [I21G],2.2
9,CCSSADICPKCWTLMTMAIRHIDR [I21H],2.23
10,CCSSADICPKCWTLMTMAIRKIDR [I21K],2.35
11,CCSSADICPKCWTLMTMAIRLIDR [I21L],1.49
12,CCSSADICPKCWTLMTMAIRMIDR [I21M],1.89
13,CCSSADICPKCWTLMTMAIRNIDR [I21N],2.46
14,CCSSADICPKCWTLMTMAIRPIDR [I21P],2.28
15,CCSSADICPKCWTLMTMAIRQIDR [I21Q],2.05
16,CCSSADICPKCWTLMTMAIRRIDR [I21R],2.75
17,CCSSADICPKCWTLMTMAIRTIDR [I21T],1.68
18,CCSSADICPKCWTLMTMAIRVIDR [I21V],1.67
19,CCSSADICPKCWTLMTMAIRWIDR [I21W],1.9
20,CCSSADICPKCWTLMTMAIRYIDR [I21Y],1.73
21,CCSSADICPKCWTLMTMAIRIADR [I22A],2.1
22,CCSSADICPKCWTLMTMAIRIEDR [I22E],2.57
23,CCSSADICPKCWTLMTMAIRIFDR [I22F],1.59
24,CCSSADICPKCWTLMTMAIRIGDR [I22G],2.44

row,Variant,protein stability index
1,CCSSADICPKCWTLMTMAIRIHDR [I22H],1.9
2,CCSSADICPKCWTLMTMAIRIKDR [I22K],2.94
3,CCSSADICPKCWTLMTMAIRILDR [I22L],2.3
4,CCSSADICPKCWTLMTMAIRIMDR [I22M],1.8
5,CCSSADICPKCWTLMTMAIRINDR [I22N],2.52
6,CCSSADICPKCWTLMTMAIRIPDR [I22P],2.71
7,CCSSADICPKCWTLMTMAIRIQDR [I22Q],2.81
8,CCSSADICPKCWTLMTMAIRIRDR [I22R],2.5
9,CCSSADICPKCWTLMTMAIRISDR [I22S],1.6
10,CCSSADICPKCWTLMTMAIRITDR [I22T],2.97
11,CCSSADICPKCWTLMTMAIRIVDR [I22V],2.34
12,CCSSADICPKCWTLMTMAIRIWDR [I22W],1.72
13,CCSSADICPKCWTLMTMAIRIYDR [I22Y],2.09
14,CCSSADICPKCWTLMTMAIRIIAR [D23A],2.29
15,CCSSADICPKCWTLMTMAIRIICR [D23C],2.19
16,CCSSADICPKCWTLMTMAIRIIER [D23E],1.94
17,CCSSADICPKCWTLMTMAIRIIFR [D23F],1.78
18,CCSSADICPKCWTLMTMAIRIIHR [D23H],1.69
19,CCSSADICPKCWTLMTMAIRIIIR [D23I],1.84
20,CCSSADICPKCWTLMTMAIRIIKR [D23K],1.41
21,CCSSADICPKCWTLMTMAIRIILR [D23L],2.25
22,CCSSADICPKCWTLMTMAIRIIMR [D23M],1.64
